The values below come from patent publication US20220220164A1.

The test has as its target maize RIP β-chain (second component of the gePSI), C-terminally fused to a murine ornithine decarboxylase (ODC36) degron (maize (Zea mays); murine) (UniProt P00860). In words: cell-based or functional assay. The following applies: scale: normalized nascent protein signal.
Sequence of UniProt P00860 (P00860 426-461, tags or fused parts left off): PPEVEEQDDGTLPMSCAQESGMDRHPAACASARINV

Substance “maize RIP α-chain (first component of the gePSI) (from UniProt P25891 22-161) (enzyme)” registered a nascent protein signal of gePSI-transfected neurons after 4 h dox, normalized to the mean of neighboring untransfected neurons (FIG. 1g) of 0.21.
